Common to all, as to experiment: holdup assay
Holding throughout (parameters): key: below the threshold = too weak to quantify, mostly under pKd 3.1 to 4

In assay [1] the target is GORASP1, Q9BQQ3.
Assay [2] deals with T1, GRIP1_5, Q9Y3R0.
T1 sequence (Q9Y3R0 568-668, limits assumed, looked up): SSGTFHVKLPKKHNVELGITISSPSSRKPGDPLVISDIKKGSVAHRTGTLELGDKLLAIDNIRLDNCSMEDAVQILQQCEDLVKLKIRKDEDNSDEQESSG

Assay [3] addresses T2, NHERF3_1, Q5T2W1.
T2 sequence (Q5T2W1 4-100, limits assumed, looked up): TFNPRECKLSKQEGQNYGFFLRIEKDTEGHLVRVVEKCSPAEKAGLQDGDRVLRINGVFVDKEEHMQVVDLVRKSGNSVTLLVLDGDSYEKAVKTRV

Assay [4] deals with DLG1_3, Q12959.
Assay [5] has as its target T3, GRIP1_2, Q9Y3R0.
T3 sequence (Q9Y3R0 145-248, limits assumed, looked up): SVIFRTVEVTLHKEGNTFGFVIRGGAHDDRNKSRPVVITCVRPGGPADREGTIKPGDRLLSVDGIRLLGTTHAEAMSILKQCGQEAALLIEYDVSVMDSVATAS

Assay [6] deals with T4, SNTB1, Q13884.
T4 sequence (Q13884 107-205, limits assumed, looked up): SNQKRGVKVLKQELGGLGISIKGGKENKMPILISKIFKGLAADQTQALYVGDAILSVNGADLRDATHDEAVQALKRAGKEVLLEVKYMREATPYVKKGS

In assay [7] the target is T5, TJP3_3, O95049.
T5 sequence (O95049 375-456, limits assumed, looked up): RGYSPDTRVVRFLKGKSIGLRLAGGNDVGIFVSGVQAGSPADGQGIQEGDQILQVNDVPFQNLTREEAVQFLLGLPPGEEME

For assay [8], the target named is T6, MPDZ_5, O75970.
T6 sequence (O75970 695-796, limits assumed, looked up): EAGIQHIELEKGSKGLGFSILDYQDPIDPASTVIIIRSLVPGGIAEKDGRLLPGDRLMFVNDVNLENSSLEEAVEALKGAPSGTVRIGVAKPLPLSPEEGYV

For assay [9], the target named is T7, APBA2_1, Q99767.
T7 sequence (Q99767 563-664, limits assumed, looked up): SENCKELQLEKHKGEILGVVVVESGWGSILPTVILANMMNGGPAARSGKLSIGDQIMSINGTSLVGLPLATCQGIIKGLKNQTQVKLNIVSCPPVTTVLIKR

Assay [10] deals with GOPC, Q9HD26.
Assay [11] addresses Inadl_8, Q8NI35.
In assay [12] the target is AHNAK1, Q09666.
The target in assay [13] is Inadl_9, Q8NI35.
Assay [14] concerns the target T8, APBA3_1, O96018.
T8 sequence (O96018 389-490, limits assumed, looked up): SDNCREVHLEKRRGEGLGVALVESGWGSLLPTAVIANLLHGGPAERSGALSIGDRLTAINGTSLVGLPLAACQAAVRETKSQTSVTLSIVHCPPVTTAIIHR

Assay [15] concerns the target T9, SNTG2, Q9NY99.
T9 sequence (Q9NY99 68-166, limits assumed, looked up): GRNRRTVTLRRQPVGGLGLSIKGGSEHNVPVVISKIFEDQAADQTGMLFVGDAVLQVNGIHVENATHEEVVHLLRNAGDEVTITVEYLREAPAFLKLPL

Assay [16] has as its target GRIP2_7, Q9C0E4.
In assay [17] the target is MAGI1_1, Q96QZ7.
Assay [18] concerns the target DLG2_3, Q15700.
Assay [19] has as its target T10, APBA1_1, Q02410.
T10 sequence (Q02410 651-752, limits assumed, looked up): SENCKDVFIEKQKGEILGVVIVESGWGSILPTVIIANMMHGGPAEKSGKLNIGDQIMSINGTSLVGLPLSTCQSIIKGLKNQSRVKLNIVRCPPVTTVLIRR

The target in assay [20] is T11, SHANK1, Q9Y566.
T11 sequence (Q9Y566 658-767, limits assumed, looked up): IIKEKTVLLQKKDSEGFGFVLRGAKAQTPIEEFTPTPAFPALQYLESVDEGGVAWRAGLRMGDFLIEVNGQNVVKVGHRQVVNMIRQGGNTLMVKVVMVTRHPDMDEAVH

For assay [21], the target named is PARD3_3, Q8TEW0.
Assay [22] has as its target GRIP2_6, Q9C0E4.
In assay [23] the target is GRID2IP_2, A4D2P6.
Assay [24] has as its target T12, SNTG1, Q9NSN8.
T12 sequence (Q9NSN8 52-150, limits assumed, looked up): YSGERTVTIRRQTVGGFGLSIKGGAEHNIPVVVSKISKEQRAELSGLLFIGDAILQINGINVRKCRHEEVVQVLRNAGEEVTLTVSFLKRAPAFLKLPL

Where [25] appears, read: plain residues with an end cap or a label only (N-terminal biotin on a linker: ado-ado).
The mark [26] stands for this setting: plain residues with an end cap or a label only (N-terminal biotin on a linker: (peg)3).

Sequence of Inadl_8, Q8NI35 (Q8NI35 1425-1530): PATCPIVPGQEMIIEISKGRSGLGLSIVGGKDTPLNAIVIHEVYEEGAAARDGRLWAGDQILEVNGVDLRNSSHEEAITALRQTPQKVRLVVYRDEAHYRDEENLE
Sequence of Inadl_9, Q8NI35 (Q8NI35 1530-1615): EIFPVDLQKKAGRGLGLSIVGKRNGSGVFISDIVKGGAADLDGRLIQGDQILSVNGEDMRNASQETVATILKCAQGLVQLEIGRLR
Sequence of PARD3_3, Q8TEW0 (Q8TEW0 582-685): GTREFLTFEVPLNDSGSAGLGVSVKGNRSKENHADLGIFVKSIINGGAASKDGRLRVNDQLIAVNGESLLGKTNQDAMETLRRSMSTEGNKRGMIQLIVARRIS
Sequence of GRIP2_6, Q9C0E4 (Q9C0E4 648-740): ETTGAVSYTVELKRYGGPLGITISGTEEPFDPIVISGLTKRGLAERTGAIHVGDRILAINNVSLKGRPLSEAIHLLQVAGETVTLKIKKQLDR
Sequence of AHNAK1, Q09666 (Q09666 4-100): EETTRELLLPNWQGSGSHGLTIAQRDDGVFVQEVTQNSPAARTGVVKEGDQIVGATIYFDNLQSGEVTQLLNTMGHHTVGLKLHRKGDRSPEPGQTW
Sequence of GORASP1, Q9BQQ3 (Q9BQQ3 1-208): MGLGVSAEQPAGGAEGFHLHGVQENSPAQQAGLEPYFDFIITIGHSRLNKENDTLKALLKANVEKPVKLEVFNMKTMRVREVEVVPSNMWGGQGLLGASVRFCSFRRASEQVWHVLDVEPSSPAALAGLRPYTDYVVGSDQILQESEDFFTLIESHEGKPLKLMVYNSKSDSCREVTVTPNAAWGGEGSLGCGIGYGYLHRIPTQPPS
Sequence of GRIP2_7, Q9C0E4 (Q9C0E4 934-1023): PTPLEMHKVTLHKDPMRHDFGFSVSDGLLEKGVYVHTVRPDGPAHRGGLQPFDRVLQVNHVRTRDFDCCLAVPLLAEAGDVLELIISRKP
Sequence of DLG1_3, Q12959 (Q12959 457-571): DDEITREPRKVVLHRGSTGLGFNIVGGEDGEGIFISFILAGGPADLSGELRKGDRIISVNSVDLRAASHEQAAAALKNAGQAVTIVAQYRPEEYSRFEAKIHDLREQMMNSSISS
Sequence of GRID2IP_2, A4D2P6 (A4D2P6 272-370): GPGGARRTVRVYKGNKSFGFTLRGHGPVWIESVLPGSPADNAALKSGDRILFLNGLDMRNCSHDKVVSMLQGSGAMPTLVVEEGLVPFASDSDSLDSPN
Sequence of MAGI1_1, Q96QZ7 (Q96QZ7 1-106): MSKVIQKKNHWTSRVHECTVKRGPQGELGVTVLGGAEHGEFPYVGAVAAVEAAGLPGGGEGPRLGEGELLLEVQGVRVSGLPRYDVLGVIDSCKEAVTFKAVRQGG

B1: APBA1, Q02410 (peptide)
chain: LTAQEQPVYI
One may read the pKd as −log10 of the Kd, conventionally taken in molar units. Regarding B1, the pKd in [1] (setting [25]) is 3.87; in assay [2] (setting [25]), “below the threshold”; in assay [3] (setting [25]) it was “below the threshold”; in assay [4] (setting [25]), “below the threshold”; in assay [5] (setting [25]) it was “below the threshold”; in assay [6] (setting [25]) it was “below the threshold”. The pKd was 3.67 in assay [7] (setting [25]); 3.52 in [8] (setting [25]); “below the threshold” in assay [9] (setting [25]); “below the threshold” in assay [10] (setting [25]); “below the threshold” in assay [11] (setting [25]); “below the threshold” in assay [12] (setting [25]). The pKd in assay [13] (setting [25]) is 4.6; in assay [14] (setting [25]), “below the threshold”; in assay [15] (setting [25]), “below the threshold”; in assay [16] (setting [25]), 3.78; in [17] (setting [25]) it was “below the threshold”; in [18] (setting [25]), 3.68. Moreover, the pKd in assay [19] (setting [25]) was 3.65; in assay [20] (setting [25]) it was “below the threshold”; in [21] (setting [25]), 4.82; in [22] (setting [25]), “below the threshold”; in assay [23] (setting [25]), 3.81; in [24] (setting [25]) it was “below the threshold”.

B2: GJD2, Q9UKL4 (peptide)
chain: RTQSSDSAYV
On to B2, for which the pKd is 3.67 in assay [1] (setting [25]); “below the threshold” in assay [2] (setting [25]); 4.95 in assay [3] (setting [25]); “below the threshold” in [4] (setting [25]); “below the threshold” in [5] (setting [25]); “below the threshold” in [6] (setting [25]). In addition, the pKd is 3.71 in assay [7] (setting [25]); “below the threshold” in assay [8] (setting [25]); “below the threshold” in assay [9] (setting [25]); “below the threshold” in [10] (setting [25]); 3.7 in assay [11] (setting [25]); “below the threshold” in [12] (setting [25]). Also, the pKd in assay [13] (setting [25]) was 3.85; in assay [14] (setting [25]), “below the threshold”; in assay [15] (setting [25]) it was “below the threshold”; in assay [16] (setting [25]) it was “below the threshold”; in [17] (setting [25]), “below the threshold”; in assay [18] (setting [25]), “below the threshold”. For the same molecule, the pKd entry is “below the threshold” in assay [19] (setting [25]); “below the threshold” in [20] (setting [25]); 3.68 in assay [21] (setting [25]); “below the threshold” in assay [22] (setting [25]); “below the threshold” in assay [23] (setting [25]); “below the threshold” in assay [24] (setting [25]).

B3: PLEKHH2, Q8IVE3 (peptide)
chain: SRPTKGPTLL
For B3, the pKd was 3.78 in assay [1] (setting [25]); “below the threshold” in [2] (setting [25]); 4.79 in assay [3] (setting [25]); “below the threshold” in [4] (setting [25]); “below the threshold” in [5] (setting [25]); “below the threshold” in assay [6] (setting [25]). Moreover, the pKd result was “below the threshold” in [7] (setting [25]); “below the threshold” in [8] (setting [25]); “below the threshold” in [9] (setting [25]); “below the threshold” in assay [10] (setting [25]); 3.61 in assay [11] (setting [25]); “below the threshold” in assay [12] (setting [25]). Besides, the pKd in assay [13] (setting [25]) is 3.5; in assay [14] (setting [25]) it was “below the threshold”; in assay [15] (setting [25]), “below the threshold”; in assay [16] (setting [25]), “below the threshold”; in [17] (setting [25]), “below the threshold”; in [18] (setting [25]), “below the threshold”. Also, the pKd entry was “below the threshold” in assay [19] (setting [25]); “below the threshold” in assay [20] (setting [25]); “below the threshold” in assay [21] (setting [25]); “below the threshold” in assay [22] (setting [25]); 4.48 in assay [23] (setting [25]); “below the threshold” in [24] (setting [25]).

B4: SARS-Cov2-3a, P0DTC3 (peptide)
chain: YDEPTTTTSVPL
With B4, the pKd result is “below the threshold” in assay [1] (setting [26]); “below the threshold” in assay [2] (setting [26]); 3.92 in assay [3] (setting [26]); “below the threshold” in [4] (setting [26]); “below the threshold” in assay [5] (setting [26]); “below the threshold” in assay [6] (setting [26]). Further, the pKd result is “below the threshold” in assay [7] (setting [26]); “below the threshold” in assay [8] (setting [26]); “below the threshold” in [9] (setting [26]); “below the threshold” in assay [10] (setting [26]); “below the threshold” in assay [11] (setting [26]); 3.77 in [12] (setting [26]). The pKd entry in assay [13] (setting [26]), in [14] (setting [26]), in [15] (setting [26]), in assay [16] (setting [26]), in assay [17] (setting [26]) and in assay [18] (setting [26]) was “below the threshold” throughout. Besides, the pKd result in assay [19] (setting [26]), in [20] (setting [26]), in assay [21] (setting [26]), in assay [22] (setting [26]), in [23] (setting [26]) and in [24] (setting [26]) was “below the threshold” in each case.

These data come from paper PMC9482650, “Quantitative fragmentomics allow affinity mapping of interactomes” (Nature Communications, 2022).
